Key:
MEK2, P36507 = target: T1, MEK2, P36507
T1 chain: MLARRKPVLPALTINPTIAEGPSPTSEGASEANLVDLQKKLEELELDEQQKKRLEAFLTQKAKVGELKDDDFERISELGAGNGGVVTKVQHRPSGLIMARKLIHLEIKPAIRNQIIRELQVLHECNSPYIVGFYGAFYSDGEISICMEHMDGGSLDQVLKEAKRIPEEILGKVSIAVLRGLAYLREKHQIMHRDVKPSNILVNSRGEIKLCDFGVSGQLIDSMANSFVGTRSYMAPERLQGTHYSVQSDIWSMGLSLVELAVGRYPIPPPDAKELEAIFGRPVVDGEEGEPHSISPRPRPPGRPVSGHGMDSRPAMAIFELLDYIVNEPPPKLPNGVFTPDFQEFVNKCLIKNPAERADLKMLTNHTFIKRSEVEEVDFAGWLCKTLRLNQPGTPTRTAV

MKK4, P45985 = target: T2, MKK4, P45985
T2 chain: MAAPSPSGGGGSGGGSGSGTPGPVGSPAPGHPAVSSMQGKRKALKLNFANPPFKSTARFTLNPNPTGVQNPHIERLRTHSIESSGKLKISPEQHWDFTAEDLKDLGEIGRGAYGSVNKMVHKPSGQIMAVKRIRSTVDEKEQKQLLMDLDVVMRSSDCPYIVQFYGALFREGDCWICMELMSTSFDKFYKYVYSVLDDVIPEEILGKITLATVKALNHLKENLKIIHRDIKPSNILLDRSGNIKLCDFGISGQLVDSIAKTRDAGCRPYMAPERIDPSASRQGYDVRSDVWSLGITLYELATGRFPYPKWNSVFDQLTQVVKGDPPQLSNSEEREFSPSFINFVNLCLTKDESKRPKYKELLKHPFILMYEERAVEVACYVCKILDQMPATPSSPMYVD

MKK6, P52564 = target: T3, MKK6, P52564
T3 chain: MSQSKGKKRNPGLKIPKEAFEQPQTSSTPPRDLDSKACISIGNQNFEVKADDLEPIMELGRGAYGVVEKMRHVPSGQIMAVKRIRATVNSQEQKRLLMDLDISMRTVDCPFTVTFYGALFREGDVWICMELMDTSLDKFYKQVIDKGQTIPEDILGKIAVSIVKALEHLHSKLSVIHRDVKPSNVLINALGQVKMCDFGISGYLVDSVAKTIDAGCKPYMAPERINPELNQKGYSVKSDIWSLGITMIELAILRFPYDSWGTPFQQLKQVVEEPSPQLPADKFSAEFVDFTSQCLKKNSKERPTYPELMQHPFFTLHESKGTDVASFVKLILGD

B1: FLAG-tagged RC Kinase polypeptide (human RC Kinase variant 1, SEQ ID NO: 7, with a FLAG epitope at its amino terminal) (protein)
chain: SKKQQLLDILMSSMPKPERHAESLLDICHDTNSSPTDLMTVTKNQNIILQSISRSEEFDQDGDCSHSTLVNEEEDPSGGRQDWQPRTEEFSTSHMKYSGRSIKFLLPPLSLLPTRSGVLTIPQNHKFPKEKERNIPSLTSFVPKLSVSVRQSDELSPSNEPPGALVKSLMDPTLRSSDGFIWSRNMCSFPKTNHHRQCLEKEENWKSKEIEECNKIEITHFEKGQSLVSFENLKEGNIPAVREEDIDCHGSKTRKPEEENSQYLSSRKNESSVAKNYEQDPEIVCTIPSKFQETQHSEITPSQDEEMRNNKAASKRVSLHKNEAMEPNNILEECTVLKSLSSVVFDDPIDKLPEGCSSMETNIKISIAERAKPEMSRMVPLIHITFPVDGSPKEPVIAKPSLQTRKGTIHNNHSVNIPVHQENDKHKMNSHRSKLDSKTKTSKKTPQNFVISTEGPIKPTMHKTSIKTQIFPALGLVDPRPWQLPRFQKKMPQIAKKQSTHRTQKPKKQSFPCICKNPGTQKSCVPLSVQPTEPRLNYLDLKYSDMFKEINSTANGPGIYEMFGTPVYCHVRETERDENTYYREICSAPSGRRITNKCRSSHSERKSNIRTRLSQKKTHMKCPKTSFGIKQEHKVLISKEKSSKAVHSNLHDIENGDGISEPDWQIKSSGNEFLSSKDEIHPMNLAQTPEQSMKQNEFPPVSDLSIVEEVSMEESTGDRDISNNQILTTSLRDLQELEELHHQIPFIPSEDSWAVPSEKNSNKYVQQEKQNTASLSKVNASRILTNDLEFDSVSDHSKTLTNFSFQAKQESASSQTYQYWVHYLDHDSLANKSITYQMFGKTLSGTNSISQEIMDSVNNEELTDELLGCLAAELLALDEKDNNSCQKMANETDPENLNLVLRWRGSTPKEMGRETTKVKIQRHSSGLRIYDREEKFLISNEKKIFSENSLKSEEPILWTKGEILGKGAYGTVYCGLTSQGQLIAVKQVALDTSNKLAAEKEYRKLQEEVDLLKALKHVNIVAYLGTCLQENTVSIFMEFVPGGSISSIINRFGPLPEMVFCKYTKQILQGVAYLHENCVVHRDIKGNNVMLMPTGIIKLIDFGCARRLAWAGLNGTHSDMLKSMHGTPYWMAPEVINESGYGRKSDIWSIGCTVFEMATGKPPLASMDRMAAMFYIGAHRGLMPPLPDHFSENAADFVRMCLTRDQHERPSALQLLKHSFLERSH
Q: Which results are given for B1?
A: phosphorylating activity (in vitro kinase assay, autoradiography after SDS-PAGE) (MEK2, P36507): no detectable activity against MEK2; RC Kinase activity (in vitro kinase assay with labelled ATP, SDS-PAGE, autoradiography) (MKK4, P45985): it has the ability to phosphorylate other RC Kinase polypeptides, MKK4, and MKK6; phosphorylating activity (in vitro kinase assay, autoradiography after SDS-PAGE) (MKK4, P45985): RC Kinase was able to phosphorylate itself and MKK4; RC Kinase activity (in vitro kinase assay with labelled ATP, SDS-PAGE, autoradiography): it has the ability to phosphorylate other RC Kinase polypeptides; phosphorylating activity (in vitro kinase assay, autoradiography after SDS-PAGE): RC Kinase was able to phosphorylate itself; RC Kinase activity (in vitro kinase assay with labelled ATP, SDS-PAGE, autoradiography) (MKK6, P52564): it has the ability to phosphorylate other RC Kinase polypeptides, MKK4, and MKK6; phosphorylating activity (in vitro kinase assay, autoradiography after SDS-PAGE) (MKK6, P52564): showed only minor activity against MKK6

Reference: US20080261903
